Measured values: article PMC10397247

Tests used:
Test in all cases: two-hybrid library CCNG1;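 also: natural log of median RNA to DNA barcode read ratio; higher means stronger binding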
4H3414-bA = biological target: T1, 4H3414-bA
T1 chain: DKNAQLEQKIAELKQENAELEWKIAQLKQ

4H3631-bA = biological target: T2, 4H3631-bA
T2 chain: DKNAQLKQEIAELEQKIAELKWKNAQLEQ

4H3638-bA = biological target: T3, 4H3638-bA
T3 chain: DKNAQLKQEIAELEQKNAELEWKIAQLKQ

4H3817-bA = biological target: T4, 4H3817-bA
T4 chain: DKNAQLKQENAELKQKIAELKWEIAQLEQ

4H3974-bA = biological target: T5, 4H3974-bA
T5 chain: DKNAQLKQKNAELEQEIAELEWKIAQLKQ

4H570-bA = biological target: T6, 4H570-bA
T6 chain: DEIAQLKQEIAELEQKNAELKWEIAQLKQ

4H584-bA = biological target: T7, 4H584-bA
T7 chain: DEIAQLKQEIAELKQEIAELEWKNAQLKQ

4H619-bA = biological target: T8, 4H619-bA
T8 chain: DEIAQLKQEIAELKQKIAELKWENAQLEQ

4H850-bA = biological target: T9, 4H850-bA
T9 chain: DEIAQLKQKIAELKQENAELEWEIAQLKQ

4H906-bA = biological target: T10, 4H906-bA
T10 chain: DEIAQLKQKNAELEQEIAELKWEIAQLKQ

Question: With DKNAQLEQKIAELKQENAELEWKIAQLKQ [4H3414-bA] as the binder, how does the interaction score (4H3414-bA) read?
Answer: Its interaction score is 0.915.

Question: And the interaction score (4H3631-bA)?
Answer: The interaction score was 0.00557.

Question: And the interaction score (4H3638-bA)?
Answer: Its interaction score is 1.02.

Question: And the interaction score (4H3817-bA)?
Answer: Its interaction score is 0.381.

Question: What about the interaction score (4H3974-bA) of the same binder?
Answer: The interaction score was -0.77.

Question: And the interaction score (4H570-bA)?
Answer: The interaction score was 0.386.

Question: And the interaction score (4H584-bA)?
Answer: Its interaction score is -0.456.

Question: And the interaction score (4H619-bA)?
Answer: Its interaction score is -1.25.

Question: And the interaction score (4H850-bA)?
Answer: The interaction score was -0.866.

Question: And the interaction score (4H906-bA)?
Answer: The interaction score was -0.43.
